Data from patent publication US20250129146A1, “COMBINED CANCER THERAPY WITH AN EPITHELIAL CELL ADHESION MOLECULE (EPCAM) INHIBITOR AND A WNT INHIBITOR” (ACADEMIA SINICA, priority 2021, published 2025).

B1: Wnt3A: recombinant Wnt3A (R & D systems) (protein, UniProt P56704 19-352, looked up)
Protein Wnt-3a: SYPIWWSLAVGPQYSSLGSQPILCASIPGLVPKQLRFCRNYVEIMPSVAEGIKIGIQECQHQFRGRRWNCTTVHDSLAIFGPVLDKATRESAFVHAIASAGVAFAVTRSCAEGTAAICGCSSRHQGSPGKGWKWGGCSEDIEFGGMVSREFADARENRPDARSAMNRHNNEAGRQAIASHMHLKCKCHGLSGSCEVKTCWWSQPDFRAIGDFLKDKYDSASEMVVEKHRESRGWVETLRPRYTYFKVPTERDLVYYEASPNFCEPNPETGSFGTRDRTCNVSSHGIDGCDLLCCGRGHNARAERRREKCRCVFHWCCYVSCQECTRVYDVHTCK
B2: EpAb2-6: anti-EpCAM (EpEX) neutralizing monoclonal antibody produced in mice by hybridoma; VH SEQ ID NO: 15, VL SEQ ID NO: 16 (antibody, V domains shown)
VH: VKLQESGPELKKPGETVKISCKASGYTFTDYSMHWVKQAPGKGLKWMGWINTETGEPTYADDFKGRFAFSLETSASTAYLQINNLKNEDTATYFCARTAVYWGQGTTVTVSS
VL: DIQMTQSPSSLSASLGERVSLTCRASQEISVSLSWLQQEPDGTIKRLIYATSTLDSGVPKRFSGSRSGSDYSLTISSLESEDFVDYYCLQYASYPWTFGGGTKLEIK
B3: EpEX: extracellular domain of EpCAM, produced in house by Expi293 Expression System (protein)
chain: QEECVCENYKLAVNCFVNNNRQCQCTSVGAQNTVICSKLAAKCLVMKAEMNGSKLGRRAKPEGALQNNDGLYDPDCDESGLFKAKQCNGTSMCWCVNTAGVRRTDKDTEITCSERVRTYWIIIELKHKAREKPYDSKSLRTALQKEITTRYQLDPKFITSILYENNVITIDLVQNSSQKTQNDVDIADVAYYFEKDVKGESLFHSKKMDLTVNGEQLDLDPGQTLIYYVDEKAPEFSMQGLKAGVIAVIVVVVIAVVAGIVVLVISRKKRMAKYEKAEIKEMGEMHRELNA

Columns and labels:
[1] = test system: colon cancer cells (SW620, HCT116); assay: Annexin-V/PI apoptosis assay; format: cell-based, human
Experimental: Cells were seeded in 24-well plate ([…] cells per well) overnight and then treated with 20 μg/mL mEpAb2-6, hEpAb2-6 or MT201, or […] LGK974 (MedChemExpress) or the combination for 24 hrs. Cell pellets were collected, and an apoptosis assay was performed using an Annexin-V/PI apoptosis kit (BD Biosciences). Results were read by flow cytometry analysis percentage apoptotic cells was calculated.

EpCAM = assay: Antibody binding to EpCAM wild-type, deletion and point mutants in HEK293T cells (immunofluorescence, flow cytometry, cellular ELISA); set-up: species or system human; conditions: mutations at EpCAM positions Y32 (EGF-I domain) or Y95 (EGF-II domain); HEK293T cells
Experimental: FIGS. 18A to 18G. […] HEK293T cells were transfected with full length or EGF like-domain deletion mutant EpCAM-V5. Antibody binding was assessed by (FIG. 8A) Western blotting, (FIG. 8B) flow cytometry, and (FIG. 8C) immunofluorescence. (FIG. 8D) EpCAM mutants were constructed with amino acid substitutions in the EGF-I (Y32A) and EGF-II (L94A, Y95A, or D96A) domains. EpCAM wild-type and mutant proteins were expressed in HEK293T cells. Binding of MT201, EpAb2-6 and EpAb23-1 to EpCAM wild-type and mutants were evaluated by (FIG. 8E) immunofluorescence, (FIG. 8F) flow cytometry, and (FIG. 8G) cellular ELISA. All data are presented as mean±SEM. *, p<0.05; **, p<0.01.
Here, we wanted to determine whether the antibody binds to EpCAM at both EGF-like domains of EpEX (FIG. 18A, FIG. 18B, FIG. 18C). To confirm that EpAb2-6 recognizes the LYD motif in EpCAM, we constructed cDNA sequences encoding the first (aa 27-59; EGF-I domain) and second (aa 66-135; EGF-II/TY domain) EGF-like repeats of EpCAM. PCR-based site-directed mutagenesis was then used to introduce mutations into each domain (FIG. 18D). The reactivity of EpAb2-6 antibody toward these EpCAM mutants was evaluated by immunofluorescence (FIG. 18E), flow cytometry (FIG. 18F), and cellular ELISA (FIG. 18G).

[2] = test system: TACE and presenilin-2 (PS2); assay: Phosphorylation of ADAM17 (TACE) and Presenilin2 (western blot); format: cell-based, human; conditions: HCT116 cells; EpEX, Wnt3A for 8 h
Experimental: For western blotting, cells were extracted using radioimmunoprecipitation assay (RIPA) buffer [(0.01 M sodium phosphate, pH 7.2), 150 mM NaCl, 2 mM EDTA, 50 mM NaF, 1% Nonidet P-40, 1% sodium deoxycholate, and 0.1% SDS)] containing phosphatase inhibitor (Roche) and protease inhibitor (Roche) cocktail. Equal amounts of protein were separated by SDS-PAGE and then transferred to PVDF membranes. The membranes were blocked with 3% BSA in TBST (Blocking solution) and incubated with necessary primary antibodies in the blocking solution overnight at 4° C. Membranes were then incubated with HRP-conjugated secondary antibodies in the blocking solution for 1 h at room temperature, and protein expression were detected. Antibodies used: anti-α-tubulin (Sigma), anti-EpCAM (abeam), anti-Active β-Catenin (Millipore), anti-total β-Catenin (abeam), anti-Frizzled 6 (CST), anti-Frizzled 7 (Santa Cruz Biotech), anti-LRP5 (abcam), anti-Phospho-LRP5 (abcam), anti-Phospho-LRP6 (CST), anti-LRP6 (CST) and anti-EpEX antibody EpAb3-5 (Produced in house), anti-ADAM17 (abcam), anti-phopho-ADAM17 (abcam), anti-Presenilin2 (abcam), anti-phospho-Presenilin2 (S327) (abcam), anti-phospho-Presenilin2 (S330) (abcam) and anti-Axin2 (CST).
To study the kinase activity of GSK3 and CK1, 10^6 cells were seeded overnight and treated with GSK3 inhibitor BIO (Sigma) or CK1 inhibitor PF-670462 (selleckchem) for 8 h. […]

γ-secretase = assay: γ-Secretase activity (luciferase reporter); format: cell-based, human; conditions: HCT116 and HT29 cells; 250 ng/mL EpEX-His or 100 ng/mL Wnt3A for 8 h, or combination
Experimental: The γ-secretase activity was measured using the protocol described by Liao et al (2004) (Liao et al., 2004). In brief, cells were transiently transfected with the control plasmid and tetracycline-inducible γ-secretase plasmid harboring luciferase (Liao et al., 2004) (the plasmids were generous gifts from Dr. Yung-Feng Liao, ICOB, Academia Sinica). Cells were treated with 250 ng/mL EpEX-His or 100 ng/mL Wnt3A (R&D Systems) for 8 h. Further, cells were lysed using passive lysis buffer and subjected to the luciferase assay.

Axin2 = assay: Wnt-target Axin2 expression (western blot, qPCR); format: cell-based, human; conditions: HT29 and HCT116 cells; EpEX, Wnt3A or combination; protein and mRNA
Experimental: For western blotting, cells were extracted using radioimmunoprecipitation assay (RIPA) buffer [(0.01 M sodium phosphate, pH 7.2), 150 mM NaCl, 2 mM EDTA, 50 mM NaF, 1% Nonidet P-40, 1% sodium deoxycholate, and 0.1% SDS)] containing phosphatase inhibitor (Roche) and protease inhibitor (Roche) cocktail. Equal amounts of protein were separated by SDS-PAGE and then transferred to PVDF membranes. The membranes were blocked with 3% BSA in TBST (Blocking solution) and incubated with necessary primary antibodies in the blocking solution overnight at 4° C. Membranes were then incubated with HRP-conjugated secondary antibodies in the blocking solution for 1 h at room temperature, and protein expression were detected. […]
Total RNA was extracted using TRI reagent and 5 μg of the total RNA was further reverse-transcribed using oligo (dT) primer with reverse transcriptase. Quantitative real time RT-PCR (qPCR) was performed on cDNA using the Light Cycler 480 SYBR Green-I Master kit and the LightCycler480 System. […]

recombinant LRP5 = target: T1, recombinant LRP5 (Homo sapiens, UniProt O75197); assay: ELISA of EpEX binding to Wnt receptor-coated plates (LRP5)
T1 construct: purchased Proteintech
Experimental: (§1) For ELISA, wells (at least 6 wells per single protein) were coated with recombinant FZD6 (Proteintech), recombinant FZD7 (Proteintech), recombinant LRP5 (Proteintech), recombinant LRP6 (Proteintech) overnight at 4° C. The wells were then blocked with 1% BSA and treated with EpEX-his (Produced in house by Expi293 Expression System) for 2 hours. Otherwise, EpEX-His was incubated with EpAb2-6 overnight and the complex was used to treat the protein-coated plates for 2 hours. Further anti-His antibody (abeam) was used and TMB was performed to record optical density at 450 nm.

recombinant FZD7 = target: T2, recombinant FZD7 (Homo sapiens, UniProt O75084); assay: ELISA of EpEX binding to Wnt receptor-coated plates (FZD7)
T2 construct: purchased Proteintech
Experimental: as §1

[3] = EpEX-His incubated with antibody overnight
[4] = EpEX-His alone, 2 hours, optical density at 450 nm

T1 sequence (O75197 32-1615): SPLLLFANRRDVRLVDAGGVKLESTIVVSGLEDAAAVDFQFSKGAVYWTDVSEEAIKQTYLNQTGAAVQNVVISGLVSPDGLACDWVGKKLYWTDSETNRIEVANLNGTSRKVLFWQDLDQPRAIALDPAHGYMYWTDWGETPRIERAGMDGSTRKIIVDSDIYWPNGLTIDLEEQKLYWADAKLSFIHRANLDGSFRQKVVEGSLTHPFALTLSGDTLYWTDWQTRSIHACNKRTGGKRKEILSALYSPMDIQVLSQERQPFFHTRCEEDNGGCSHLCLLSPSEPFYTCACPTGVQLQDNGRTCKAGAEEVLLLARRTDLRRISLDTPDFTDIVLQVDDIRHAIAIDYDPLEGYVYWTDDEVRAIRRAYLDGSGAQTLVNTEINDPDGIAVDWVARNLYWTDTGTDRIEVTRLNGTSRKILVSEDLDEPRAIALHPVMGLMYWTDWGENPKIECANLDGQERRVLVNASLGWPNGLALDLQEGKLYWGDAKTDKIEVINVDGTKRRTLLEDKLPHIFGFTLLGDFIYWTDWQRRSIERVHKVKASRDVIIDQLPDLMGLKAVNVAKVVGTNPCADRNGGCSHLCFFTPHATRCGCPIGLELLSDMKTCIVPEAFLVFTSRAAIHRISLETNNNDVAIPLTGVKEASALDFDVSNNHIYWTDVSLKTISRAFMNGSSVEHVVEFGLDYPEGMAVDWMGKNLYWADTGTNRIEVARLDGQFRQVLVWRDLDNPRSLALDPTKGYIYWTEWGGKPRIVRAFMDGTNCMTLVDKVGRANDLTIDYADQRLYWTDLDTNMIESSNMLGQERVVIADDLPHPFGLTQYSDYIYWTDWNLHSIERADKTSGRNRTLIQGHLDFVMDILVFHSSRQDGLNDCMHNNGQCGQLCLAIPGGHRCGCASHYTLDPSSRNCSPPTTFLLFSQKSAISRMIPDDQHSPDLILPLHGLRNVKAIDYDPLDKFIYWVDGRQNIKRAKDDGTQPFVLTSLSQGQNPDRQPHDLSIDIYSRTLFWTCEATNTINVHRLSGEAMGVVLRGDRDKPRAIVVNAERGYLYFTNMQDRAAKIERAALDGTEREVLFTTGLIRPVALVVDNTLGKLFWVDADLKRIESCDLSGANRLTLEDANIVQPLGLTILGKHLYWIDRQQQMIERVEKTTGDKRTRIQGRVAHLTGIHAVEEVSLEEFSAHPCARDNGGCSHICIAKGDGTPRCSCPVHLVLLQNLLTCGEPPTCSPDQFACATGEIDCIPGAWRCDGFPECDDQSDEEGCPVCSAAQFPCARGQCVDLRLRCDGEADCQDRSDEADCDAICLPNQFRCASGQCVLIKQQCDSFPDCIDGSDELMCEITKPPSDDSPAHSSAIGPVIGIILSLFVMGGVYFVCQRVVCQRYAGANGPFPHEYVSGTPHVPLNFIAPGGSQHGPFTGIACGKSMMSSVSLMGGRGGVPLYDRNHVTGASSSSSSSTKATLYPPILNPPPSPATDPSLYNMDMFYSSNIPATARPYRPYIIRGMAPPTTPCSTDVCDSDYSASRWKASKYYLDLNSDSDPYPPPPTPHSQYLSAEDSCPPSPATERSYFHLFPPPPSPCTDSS

Molecule	induction of apoptosis ([1]; HCT116 cells, 20 μg/mL hEpAb2-6, mEpAb2-6 or MT201 for 24 hrs)	antibody binding to EpCAM mutants (EpCAM)	phosphorylation of TACE and presenilin-2 (PS2) [2]	γ-secretase activity (γ-secretase)	Axin2 expression (Axin2)	induction of apoptosis ([1]; SW620 and HCT116 cells, 20 μg/mL EpAb2-6, LGK974 or the combination for 24 hrs)	EpEX binding to LRP5 after pre-incubation with antibody (recombinant LRP5; [3])	EpEX binding to FZD7 after pre-incubation with antibody (recombinant FZD7; [3])	EpEX binding to LRP5 (recombinant LRP5; [4])	EpEX binding to FZD7 (recombinant FZD7; [4])
MT201: adecatumumab, a human anti-EpCAM antibody that was subjected to clinical trials [reference compound]	does not have such activity	did not affect MT201 binding	–	–	–	–	–	–	–	–
B1	–	–	increases the phosphorylation	enhanced	increased Axin2 expression	–	–	–	–	–
B2	–	marked reductions in EpAb2-6 binding	–	–	–	could induce apoptosis	substantially decreased binding	substantially decreased binding	–	–
B3	–	–	increases the phosphorylation	enhanced	increased Axin2 expression	–	–	–	bind with all receptor proteins	bind with all receptor proteins
